Data set [1] concerns the target T1, CYP3A4 (Homo sapiens, UniProt P08684, T363M).
T1 construct: made in house; host or cells: E. coli TOPP3
Description: Testosterone hydroxylase activity of wild-type and mutant CYP3A4 proteins (reconstituted with NADPH-cytochrome P450 reductase and cytochrome b5). Type of data set: biochemical. The note with it: Table 5. The procedure:
(§1) Mutants were expressed in E. coli TOPP3 cells. Cultures of each strain were started from single colonies in 2-ml of LB media containing ampicillin (50 μg/ml) and tetracycline (15 μg/ml) and grown overnight at 37° C. with shaking. Larger, 20-ml cultures of each sample were inoculated and grown as described for the 2-ml cultures. Starter cultures (15 ml) were inoculated into 250-ml of TB media containing ampicillin (50 μg/ml) and grown 2-3 hr at 37° C. at 250 rpm. δ-aminolevulinic acid (80 mg/L) and IPTG (1 mM) were added and the cultures grown 72 hr at 30° C. at 190 rpm. The cells were harvested, sonicated and CHAPS solubilized, and the protein was purified on Talon Metal Affinity resin from Clontech (Palo Alto, Calif.). Final P450 content was measured by reduced CO difference spectra (Omura, J Biol Chem 239 (1964), 2370-2378), and each protein was visualized on an 8.5% SDS PAGE gel stained with Coomassie blue. Western Blot analysis of CYP3A4 wild-type, M2, M5 and M7 was performed by resolving 1 pmol of 3A4 wildtype and M5, and 8 μl of M2 and M7 total protein sample on an 8.5% SDS PAGE gel. The samples were then transferred to nitrocellulose and probed with an anti-3A12 polyclonal antibody known to cross-react with CYP3A4 (Ciaccio, Arch Biochem Biophys 271 (1989), 284-99).
(§2) Following the reconstitution with NADPH-cytochrome P450 reductase and cytochrome b5, the catalytical activities of M1, M4, M5 and M6 variants were measured using testosterone, progesterone and 7-BFC as substrates (Tables 5-7).

Data set [2] concerns CYP3A4. The data set is described as above. Type of data set: biochemical, human. The procedure:
as §1, §2

The target of data set [3] is T1, CYP3A4. Description: 7-Benzyloxy-4-(trifluoromethyl)coumarin (7-BFC) debenzylase activity of wild-type and mutant CYP3A4 proteins. Type of data set: biochemical. The following applies: Table 7. The method, then: as §1, §2
Data set [4] relates to CYP3A4. The data set is described as above. Type of data set: biochemical, human. The following applies: substrate 7-BFC. The method, then: as §1, §2
Data set [5] has as its system CYP3A4 holoenzyme. Description: Expression of CYP3A4 holoenzyme in E. coli, reduced CO difference spectra. On the set-up: species or system human. The procedure:
as §1
The effect of the protein variants on the expression level and catalytical activity of CYP3A4 was investigated using a bacterial CYP3A4 expression system. Sequence variants were introduced into the pSE3A4H expression vector (Harlow, J Biol Chem 272 (1997), 5396-402) which encodes for a CYP3A4 protein identical to that found in most Caucasians. No other, unwanted mutations were introduced into the CYP3A4 insert or the promoter driving its expression as confirmed by sequencing. Mutants M1-M8 were expressed in E. coli as described in Example 5, the expression of the CYP3A4 holoenzyme assessed by measuring reduced CO difference spectra, and the protein purified. All but M2, M5 and M7 mutants were detectable at levels similar to CYP3A4. […] The expression of M2, M5, and M7 was further investigated by Western Blotting using an anti-CYP3A12 polyclonal antibody known to cross-react with CYP3A4 (Ciaccio, Arch Biochem Biophys 271 (1989), 284-99) as described in Example 5.

The target of data set [6] is T1, CYP3A4. Description: Progesterone hydroxylase activity of wild-type and mutant CYP3A4 proteins. Type of data set: biochemical. The following applies: Table 6. The procedure:
as §1, §2

The subject of data set [7] is CYP3A4. The data set is described as above. Type of data set: biochemical, human. The method, then:
as §1, §2

Marks after values point to notes of the source that are not given here.

T1 sequence (P08684 2-503 T363M): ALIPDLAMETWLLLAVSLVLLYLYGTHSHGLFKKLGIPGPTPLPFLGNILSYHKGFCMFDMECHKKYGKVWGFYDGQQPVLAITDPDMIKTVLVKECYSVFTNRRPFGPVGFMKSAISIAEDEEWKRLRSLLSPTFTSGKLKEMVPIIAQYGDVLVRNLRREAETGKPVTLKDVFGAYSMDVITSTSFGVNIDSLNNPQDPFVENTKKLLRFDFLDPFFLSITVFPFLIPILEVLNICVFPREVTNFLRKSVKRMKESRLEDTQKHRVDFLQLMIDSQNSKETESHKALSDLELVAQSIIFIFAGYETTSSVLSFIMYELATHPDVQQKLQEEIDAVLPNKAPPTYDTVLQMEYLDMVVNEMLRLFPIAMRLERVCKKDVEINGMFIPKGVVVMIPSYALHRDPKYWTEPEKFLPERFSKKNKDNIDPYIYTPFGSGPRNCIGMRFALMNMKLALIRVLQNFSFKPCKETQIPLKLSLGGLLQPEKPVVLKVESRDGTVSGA

“M5: CYP3A4 protein variant T363M (g.21867C>T, exon 11) [Mutant M5]”: in data set [1], the “Testosterone hydroxylase activity compared with wild-type protein, in words” value is on record as “approximately half that of wild-type protein”. Besides, in data set [2] (25 μM testosterone), the “Testosterone hydroxylase activity, 2β-OH” value was <0.1, <0.1 nmol product/min/nmol protein; the “Testosterone hydroxylase activity, 6β-OH” value is 5.1^c nmol product/min/nmol protein; the “Testosterone hydroxylase activity, 15β-OH” value is 0.1 nmol product/min/nmol protein. In data set [2] (400 μM testosterone), the “Testosterone hydroxylase activity, 2β-OH” value is recorded as 3.6 nmol product/min/nmol protein; the “Testosterone hydroxylase activity, 6β-OH” value is on record as 19.5^c nmol product/min/nmol protein; the “Testosterone hydroxylase activity, 15β-OH” value was 0.7 nmol product/min/nmol protein. Further, in data set [3], the “7-BFC debenzylase activity compared with wild-type protein, in words” value is on record as “approximately half that of wild-type protein”. In addition, the “7-BFC debenzylase activity, 7-hydroxy-4-(trifluoromethyl)coumarin” value in data set [4] is reported as 2.9^c nmol product/min/nmol protein. Further, in data set [5], the “Effect of mutation on expression of CYP3A4 holoenzyme (conclusion)” value is on record as “diminishes” and the “Stability of the protein (consistency of P450 measurements in multiple determinations)” value was “some instability”. In addition, the “Expression level of P450 holoenzyme relative to CYP3A4” value in data set [5] (E. coli expression, reduced CO difference spectra) is “less than 10%”. The “Progesterone hydroxylase activity compared with wild-type protein, in words” value in data set [6] is “approximately half that of wild-type protein”. Further, in data set [7] (25 μM progesterone), the “Progesterone hydroxylase 6β/16α ratio” value turned out to be 9.8; the “Progesterone hydroxylase activity, 6β-OH” value is given as 5.9^c nmol product/min/nmol protein; the “Progesterone hydroxylase activity, 16α-OH” value is 0.6 nmol product/min/nmol protein. Moreover, in data set [7] (150 μM progesterone), the “Progesterone hydroxylase 6β/16α ratio” value turned out to be 5.4; the “Progesterone hydroxylase activity, 6β-OH” value is 16.6^c nmol product/min/nmol protein; the “Progesterone hydroxylase activity, 16α-OH” value is 3.1 nmol product/min/nmol protein.

For the origin of these results see patent US7655771B1, “Polymorphisms in the human cyp3a4 and cyp3a7 genes and their use in diagnostic and therapeutic applications” (PGx Health, LLC, priority 1999, dated 2010).
